Experimental data from patent publication US20090305309A1.

Target: Src substrate peptide … derived from p130cas, tyrosine-phosphorylated by Src
Experiment: cell-based or functional assay

## c-Src SH2 domain of the Src reporter
  cyan-to-yellow emission ratio of the purified Src reporter after in vitro phosphorylation by Src: 25%
  emission ratio change of the Src reporter in HeLa cells on EGF stimulation: 25 to 35%
  emission ratio change of the monomeric (A206K CFP/YFP) Src reporter in response to Src kinase in vitro: 43%
